What all share (assay): Mass spectroscopy proteomics, semi-quantitative binding affinity of serum proteins (plaqueproteome, Table 2)
What all share (conditions): higher number = stronger affinity

For assay [1], the target named is T1, Abeta-42 plaque particles (Homo sapiens, UniProt P05067).
T1 construct: Abeta 1-42
An outline of the steps: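 AD patient serum or plasma (50% in PBS) was incubated with Abeta-42 aggregates (30 μg) for 1 h at 37 °C, then stained with Thioflavin S for 30 min. Labeled particles were FACS-sorted, trypsin/Lys-C digested overnight and analyzed by MS/MS. Sequest searched human UniProt; Scaffold/Protein Prophet validated the identifications.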

For assay [2], the system named is High Density cholesterol (Chl Large) plaque particles. More on the design: species or system human. An outline of the steps:
(§1)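 Atherosclerotic plasma/serum (50% in PBS) + 30 μg cholesterol aggregates, 1 hr 37° C; FACS gates split low- vs high-density particles. Acetone precipitation, urea/ProteaseMAX, acrylamide alkylation, overnight Trypsin/Lys C at 37° C; Sequest search, Scaffold/Protein Prophet validation.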

The subject of assay [3] is Low density cholesterol (Chl small) plaque particles. Also on record: species or system human. The gist of the method:
as §1

In assay [4] the target is T2, alpha-synuclein plaque particles (Homo sapiens, UniProt P37840).
T2 construct: 140 amino acids polypeptide
The gist of the method:
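AD-subject plasma or serum (800 μL of 50%) mixed with 30 μg preformed alpha-synuclein aggregates for 1 h at 37 °C; Thioflavin S-positive particles isolated by flow sorting. After reduction, acrylamide alkylation and overnight tryptic digestion, serum proteins identified by MS/MS with Sequest and Scaffold.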

A further assay concerns Tau plaque particles. Also on record: species or system human. An outline of the steps:
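Synthetic Tau-74 and Tau-275 peptides (1 mg/mL PBS, 37° C, 2 h) aggregated; 30 μg aggregates incubated with 50% serum/plasma 1 h at 37° C, stained with Thioflavin S, and plaque particles sorted by flow cytometry. Bound proteins trypsin-digested and identified by MS/MS against human UniProt.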

B1: Carboxypeptidase N subunit 2 (protein)
chain: CPMGCDCFVQEVFCSDEELATVPLDIPPYTKNIIFVETSFTTLETRAFGSNPNLTKVVFLNTQLCQFRPDAFGGLPRLEDLEVTGSSFLNLSTNIFSNLTSLGKLTLNFNMLEALPEGLFQHLAALESLHLQGNQLQALPRRLFQPLTHLKTLNLAQNLLAQLPEELFHPLTSLQTLKLSNNALSGLPQGVFGKLGSLQELFLDSNNISELPPQVFSQLFCLERLWLQRNAITHLPLSIFASLGNLTFLSLQWNMLRVLPAGLFAHTPCLVGLSLTHNQLETVAEGTFAHLSNLRSLMLSYNAITHLPAGIFRDLEELVKLYLGSNNLTALHPALFQNLSKLELLSLSKNQLTTLPEGIFDTNYNLFNLALHGNPWQCDCHLAYLFNWLQQYTDRLLNIQTYCAGPAYLKGQVVPALNEKQLVCPVTRDHLGFQVTWPDESKAGGSWDLAVQERAARSQCTYSNPEGTVVLACDQAQCRWLNVQLSPQQGSLGLQYNASQEWDLRSSCGSLRLTVSIEARAAGP
Turning to B1, the “Semi-quantitative analysis of proteins binding to different plaque particles: Abeta-42” value in assay [1] was 0. Also, the “Semi-quantitative analysis of proteins binding to different plaque particles: Chl Large” value in assay [2] is on record as 0. In assay [3], the “Semi-quantitative analysis of proteins binding to different plaque particles: Chl small” value amounted to 1. Moreover, in assay [4], the “Semi-quantitative analysis of proteins binding to different plaque particles: Synuclein” value was 2. Besides, the “Semi-quantitative analysis of proteins binding to different plaque particles: Tau” value in the assay on Tau plaque particles is 1.

B2: Insulin-like growth factor-binding protein complex (protein)
chain: ADPGTPGEAEGPACPAACVCSYDDDADELSVFCSSRNLTRLPDGVPGGTQALWLDGNNLSSVPPAAFQNLSSLGFLNLQGGQLGSLEPQALLGLENLCHLHLERNQLRSLALGTFAHTPALASLGLSNNRLSRLEDGLFEGLGSLWDLNLGWNSLAVLPDAAFRGLGSLRELVLAGNRLAYLQPALFSGLAELRELDLSRNALRAIKANVFVQLPRLQKLYLDRNLIAAVAPGAFLGLKALRWLDLSHNRVAGLLEDTFPGLLGLRVLRLSHNAIASLRPRTFKDLHFLEELQLGHNRIRQLAERSFEGLGQLEVLTLDHNQLQEVKAGAFLGLTNVAVMNLSGNCLRNLPEQVFRGLGKLHSLHLEGSCLGRIRPHTFTGLSGLRRLFLKDNGLVGIEEQSLWGLAELLELDLTSNQLTHLPHRLFQGLGKLEYLLLSRNRLAELPADALGPLQRAFWLDVSHNRLEALPNSLLAPLGRLRYLSLRNNSLRTFTPQPPGLERLWLEGNPWDCGCPLKALRDFALQNPSAVPRFVQAICEGDDCQPPAYTYNNITCASPPEVVGLDLRDLSEAHFAPC
B2: in assay [1], the “Semi-quantitative analysis of proteins binding to different plaque particles: Abeta-42” value is on record as 0. In addition, in assay [2], the “Semi-quantitative analysis of proteins binding to different plaque particles: Chl Large” value is 1. Also, the “Semi-quantitative analysis of proteins binding to different plaque particles: Chl small” value in assay [3] was 1. The “Semi-quantitative analysis of proteins binding to different plaque particles: Synuclein” value in assay [4] turned out to be 0. Moreover, in the assay on Tau plaque particles, the “Semi-quantitative analysis of proteins binding to different plaque particles: Tau” value came out at 1.

B3: Corticosteroid-binding globulin (protein)
chain: MDPNAAYVNMSNHHRGLASANVDFAFSLYKHLVALSPKKNIFISPVSISMALAMLSLGTCGHTRAQLLQGLGFNLTERSETEIHQGFQHLHQLFAKSDTSLEMTMGNALFLDGSLELLESFSADIKHYYESEVLAMNFQDWATASRQINSYVKNKTQGKIVDLFSGLDSPAILVLVNYIFFKGTWTQPFDLASTREENFYVDETTVVKVPMMLQSSTISYLHDSELPCQLVQMNYVGNGTVFFILPDKGKMNTVIAALSRDTINRWSAGLTSSQVDLYIPKVTISGVYDLGDVLEEMGIADLFTNQANFSRITQDAQLKSSKVVHKAVLQLNEEGVDTAGSTGVTLNLTSKPIILRFNQPFIIMIFDHFTWSSLFLARVMNPV
Turning to B3, the “Semi-quantitative analysis of proteins binding to different plaque particles: Abeta-42” value in assay [1] was found to be 0. The “Semi-quantitative analysis of proteins binding to different plaque particles: Chl Large” value in assay [2] worked out at 2. Also, the “Semi-quantitative analysis of proteins binding to different plaque particles: Chl small” value in assay [3] came to 3. Moreover, in assay [4], the “Semi-quantitative analysis of proteins binding to different plaque particles: Synuclein” value turned out to be 1. For the same molecule, the “Semi-quantitative analysis of proteins binding to different plaque particles: Tau” value in the assay with Tau plaque particles came to 1.

B4: Leucine-rich alpha-2-glycoprotein (protein)
chain: VTLSPKDCQVFRSDHGSSISCQPPAEIPGYLPADTVHLAVEFFNLTHLPANLLQGASKLQELHLSSNGLESLSPEFLRPVPQLRVLDLTRNALTGLPPGLFQASATLDTLVLKENQLEVLEVSWLHGLKALGHLDLSGNRLRKLPPGLLANFTLLRTLDLGENQLETLPPDLLRGPLQLERLHLEGNKLQVLGKDLLLPQPDLRYLFLNGNKLARVAAGAFQGLRQLDMLDLSNNSLASVPEGLWASLGQPNWDMRDGFDISGNPWICDQNLSDLYRWLQAQKDKMFSQNDTRCAGPEAVKGQTLLAVAKSQ
For the molecule B4, the “Semi-quantitative analysis of proteins binding to different plaque particles: Abeta-42” value in assay [1] came out at 2. For the same molecule, the “Semi-quantitative analysis of proteins binding to different plaque particles: Chl Large” value in assay [2] is 2. Moreover, in assay [3], the “Semi-quantitative analysis of proteins binding to different plaque particles: Chl small” value worked out at 3. Besides, the “Semi-quantitative analysis of proteins binding to different plaque particles: Synuclein” value in assay [4] worked out at 2. In addition, in the assay on Tau plaque particles, the “Semi-quantitative analysis of proteins binding to different plaque particles: Tau” value turned out to be 1.

B5: Isoform 2 of Apolipoprotein L1 (protein)
chain: EEAGARVQQNVPSGTDTGDPQSKPLGDWAAGTMDPESSIFIEDAIKYFKEKVSTQNLLLLLTDNEAWNGFVAAAELPRNEADELRKALDNLARQMIMKDKNWHDKGQQYRNWFLKEFPRLKSELEDNIRRLRALADGVQKVHKGTTIANVVSGSLSISSGILTLVGMGLAPFTEGGSLVLLEPGMELGITAALTGITSSTMDYGKKWWTQAQAHDLVIKSLDKLKEVREFLGENISNFLSLAGNTYQLTRGIGKDIRALRRARANLQSVPHASASRPRVTEPISAESGEQVERVNEPSILEMSRGVKLTDVAPVSFFLVLDVVYLVYESKHLHEGAKSETAEELKKVAQELEEKLNILNNNYKILQADQEL
Regarding B5, the “Semi-quantitative analysis of proteins binding to different plaque particles: Abeta-42” value in assay [1] is 0. The “Semi-quantitative analysis of proteins binding to different plaque particles: Chl Large” value in assay [2] came to 1. In assay [3], the “Semi-quantitative analysis of proteins binding to different plaque particles: Chl small” value is reported as 1. Also, the “Semi-quantitative analysis of proteins binding to different plaque particles: Synuclein” value in assay [4] was 0. The “Semi-quantitative analysis of proteins binding to different plaque particles: Tau” value in the assay with Tau plaque particles worked out at 2.

B6: Kallistatin (protein)
chain: QLHVEHDGESCSNSSHQQILETGEGSPSLKIAPANADFAFRFYYLIASETPGKNIFFSPLSISAAYAMLSLGACSHSRSQILEGLGFNLTELSESDVHRGFQHLLHTLNLPGHGLETRVGSALFLSHNLKFLAKFLNDTMAVYEAKLFHTNFYDTVGTIQLINDHVKKETRGKIVDLVSELKKDVLMVLVNYIYFKALWEKPFISSRTTPKDFYVDENTTVRVPMMLQDQEHHWYLHDRYLPCSVLRMDYKGDATVFFILPNQGKMREIEEVLTPEMLMRWNNLLRKRNFYKKLELHLPKFSISGSYVLDQILPRLGFTDLFSKWADLSGITKQQKLEASKSFHKATLDVDEAGTEAAAATSFAIKFFSAQTNRHILRFNRPFLVVIFSTSTQSVLFLGKVVDPTKP
As for B6, the “Semi-quantitative analysis of proteins binding to different plaque particles: Abeta-42” value in assay [1] turned out to be 0. Moreover, in assay [2], the “Semi-quantitative analysis of proteins binding to different plaque particles: Chl Large” value is 1. Further, in assay [3], the “Semi-quantitative analysis of proteins binding to different plaque particles: Chl small” value came out at 0. For the same molecule, the “Semi-quantitative analysis of proteins binding to different plaque particles: Synuclein” value in assay [4] stood at 0. Besides, the “Semi-quantitative analysis of proteins binding to different plaque particles: Tau” value with Tau plaque particles is on record as 1.

B7: Serum amyloid A-4 protein (protein)
chain: ESWRSFFKEALQGVGDMGRAYWDIMISNHQNSNRYLYARGNYDAAQRGPGGVWAAKLISRSRVYLQGLIDCYLFGNSSTVLEDSKSNEKAEEWGRSGKDPDRFRPDGLPKKY
For the molecule B7, in assay [1], the “Semi-quantitative analysis of proteins binding to different plaque particles: Abeta-42” value is listed as 2. For the same molecule, the “Semi-quantitative analysis of proteins binding to different plaque particles: Chl Large” value in assay [2] came out at 1. In addition, the “Semi-quantitative analysis of proteins binding to different plaque particles: Chl small” value in assay [3] stood at 1. In assay [4], the “Semi-quantitative analysis of proteins binding to different plaque particles: Synuclein” value was determined as 1. Besides, in the assay with Tau plaque particles, the “Semi-quantitative analysis of proteins binding to different plaque particles: Tau” value amounted to 4.

B8: Pigment epithelium-derived factor (protein)
chain: QNPASPPEEGSPDPDSTGALVEEEDPFFKVPVNKLAAAVSNFGYDLYRVRSSTSPTTNVLLSPLSVATALSALSLGAEQRTESIIHRALYYDLISSPDIHGTYKELLDTVTAPQKNLKSASRIVFEKKLRIKSSFVAPLEKSYGTRPRVLTGNPRLDLQEINNWVQAQMKGKLARSTKEIPDEISILLLGVAHFKGQWVTKFDSRKTSLEDFYLDEERTVRVPMMSDPKAVLRYGLDSDLSCKIAQLPLTGSMSIIFFLPLKVTQNLTLIEESLTSEFIHDIDRELKTVQAVLTVPKLKLSYEGEVTKSLQEMKLQSLFDSPDFSKITGKPIKLTQVEHRAGFEWNEDGAGTTPSPGLQPAHLTFPLDYHLNQPFIFVLRDTDTGALLFIGKILDPRGP
In the case of B8, the “Semi-quantitative analysis of proteins binding to different plaque particles: Abeta-42” value in assay [1] stood at 5. Besides, the “Semi-quantitative analysis of proteins binding to different plaque particles: Chl Large” value in assay [2] is given as 4. The “Semi-quantitative analysis of proteins binding to different plaque particles: Chl small” value in assay [3] was determined as 3. In assay [4], the “Semi-quantitative analysis of proteins binding to different plaque particles: Synuclein” value worked out at 4. Moreover, in the assay on Tau plaque particles, the “Semi-quantitative analysis of proteins binding to different plaque particles: Tau” value was 4.

For the origin of these results see US9618524B2, “Method, composition, isolation and identification of a plaque particle and related biomarker” (Plaxgen Inc., priority 2012, dated 2017).
